Assay: yeast display, Sf9 membrane polyspecificity reagent, FACS + sequencing; frameworks hold sequencing errors
In short: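 Sorting gates, low and high (top ~1%), were placed on anti-HA fluorescence to track expression and on streptavidin fluorescence to track reagent binding. A clone's polyreactivity label is taken from the gate it came out of. The reagent was 10% biotinylated, detergent-solubilized Sf9 membrane, applied for 1 hour at 4 °C to galactose-induced yeast display cells.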

| Sequence | polyreactivity (PSR sort gate) |
| --- | --- |
| QVQLVESGGGLVQAGGSLRLSCAASGSTFYAYGMGWYRQAPGKERELVATITWSGGSTYYADSVKGRFTISRDNAKNTVYLQMNSLKPEDTAVYYCAARSPFPTIADGDYWGQGTQVTVSS | low polyreactivity |
| QVQLVESGGGLVQAGGSLRLSCAASGSTFYAYTMGWYRQAPGKERELVAAITGRGGRTYYADSVKGRFTISRDNAKNTVYLQMNSLKPEDTAVYYCAAVYRKYPYSDYDYWGQGTQVTVSS | high polyreactivity |
| QVQLVESGGGLVQAGGSLRLSCAASGSTFYDYAMGWYRQAPGKERELVAAITSGGSTDYADSVKGRFTISRDNAKNTVYLQMNSLKPEDTAVYYCATDTDSNYISHQFVWYDYWGQGTQVTVSS | low polyreactivity |
| QVQLVESGGGLVQAGGSLRLSCAASGSTFYDYDMGWYSQAPGKESELVAAITSGGSTKYADSVKGRFTISRDNAKNTVYLQMNSLKPEDTAVYYCNADSQRPAYWDGYWGQGTKVTVSS | low polyreactivity |
| QVQLVESGGGLVQAGGSLRLSCAASGSTFYENAKGWYRQAPGKERELVAGISRGGGSTYYADSVKGRFTISRDNAKNTVYLQMNSLKPEDTAVYYCARRPRYGVEYNYWGQGTQVTVSS | low polyreactivity |
| QVQLVESGGGLVQAGGSLRLSCAASGSTFYFYAMGWYRQAPGKERELVAAITGSGGSTYYADSVKGRFTISRDNAKNTVYLQMNSLKPEDTAVYYCAARFSYWKTKRAYDWGQGTQVTVSS | high polyreactivity |
| QVQLVESGGGLVQAGGSLRLSCAASGSTFYFYAMGWYRQAPGKERELVATISYSDGSTYYADSVKGRFTISRDNAKNTVYLQMNSLKPEDSAVYYCAKGSNDWVNFGYDYWGQGTQVTVSS | low polyreactivity |
| QVQLVESGGGLVQAGGSLRLSCAASGSTFYGNAMGWYRQAPGKERELVAAIRWRGGRTYYADSVKGRFTISRDNAKNTVYLQMNSLKPEDTAVYYCNALPGVSHTQYDRVGYWGQGTQVTVSS | high polyreactivity |
| QVQLVESGGGLVQAGGSLRLSCAASGSTFYGYAKGWYRQAPGKERELVAAITRSGGSTYYADSVKGRFTISRDNAKNTVYLQMNSLKPEDTAVYYCAVATGPVSYRRYYWGQGTQVTVSS | high polyreactivity |
| QVQLVESGGGLVQAGGSLRLSCAASGSTFYGYAMGRYRQSPGKERELVAAITRSGGSTYYADSVKGRFTISRDNAKNTVYLQMNSLKPEDTEVYYCNKYGYKGGVGYDYWGQGTQVTVSS | high polyreactivity |
| QVQLVESGGGLVQAGGSLRLSCAASGSTFYGYAMGSYRQAPGKERELVAAISYSGSSTYYADSVKGRFTISRDNAKNTVYLQMNSLKPEDTAVFYCAVDDTHPFGPDGGGDYWGQCTQVTVSS | low polyreactivity |
| QVQLVESGGGLVQAGGSLRLSCAASGSTFYGYAMGWYRQAPGKERELVAAIRRIGGTTYADSVKGRFTISRDNAKNTVYLQMNSLKPVDTAVYYCAAYGFSYRYRYYYWGQGTQVTVSS | high polyreactivity |
| QVQLVESGGGLVQAGGSLRLSCAASGSTFYGYAMGWYRQAPGKERELVAAISSSGTRTYYADSVKGRFTISRDNAKNTVYLQMNSLKPEDTAVYYCNAYYYIPFEGRGYSKMDYWGQGTQVTVSS | high polyreactivity |
| QVQLVESGGGLVQAGGSLRLSCAASGSTFYGYAMGWYRQAPGKERELVAAISWRGGRTNYADSVKGRFTISRDNAKNTVYLQMNSLKPEDTAFYYCAARSYGITDYGMYSWGQGTQVTVSS | high polyreactivity |
| QVQLVESGGGLVQAGGSLRLSCAASGSTFYGYAMGWYRQAPGKERELVAAITRSGGSTYYADSVKGRFTISRDNAKNTVYLQMNSLKPEDTEVYYCNKYGYKGGVGYDYWGQGTQVTVSS | high polyreactivity |
| QVQLVESGGGLVQAGGSLRLSCAASGSTFYGYAMGWYRQAPGKERELVAAITRSGGSTYYADSVKGRFTISRDNAKYTVYLQMNSLKPEDTEVYYCNKYGYKGGVGYDYWGQGTQVTVSS | high polyreactivity |
| QVQLVESGGGLVQAGGSLRLSCAASGSTFYGYAMGWYRQAPGKERELVAAITSTVITDYADSVKGRFTISRDNAKNTVYLQMNSLKPEDTAVYYCNKDRATRVTAEFRGDDDYWGQGTQVTVSS | low polyreactivity |
| QVQLVESGGGLVQAGGSLRLSCAASGSTFYGYAMGWYRQAPGKERELVAAITYSGGSTYYADSVKGRFTISRDNAKNTVYLQMNSLKPEDTAVYYCAATWLWFRRYRYDYWGQGTQVTVSS | high polyreactivity |
| QVQLVESGGGLVQAGGSLRLSCAASGSTFYHNAMGWYRPAPGKERELVAAISRADVSTYYADSVKGRFTISRDNAKNTVYLQMNSLKPEDTAVYFGAAYWYGSQYKWRYDYWGQGTQVTVSS | low polyreactivity |
| QVQLVESGGGLVQAGGSLRLSCAASGSTFYHNVMGWYRQAPGKERELVASIDTGDSTNYADSVKGRFTISRDNAKNTVYLQMNSLITEHTAVYYCNADSYPALNKRGYEYWGQGTQVTVSS | low polyreactivity |
| QVQLVESGGGLVQAGGSLRLSCAASGSTFYHNVRGWYRPAPGKERELVASIDTGDSTNYADSVKGRFTISRDNAKNTVYFQMNSLTPEDTAVYYCNADSYAALNKRGYDYWGQGTQVTVSS | low polyreactivity |
| QVQLVESGGGLVQAGGSLRLSCAASGSTFYINAMGWYRQAPGKERELVADITVRGGNTYYADSVKGRFTISRDNAKNTVYLQMNSLKPEDTAVYYCAADDWGFWYDYWGQGTQVTVSS | high polyreactivity |
| QVQLVESGGGLVQAGGSLRLSCAASGSTFYINVMGWYIQAPGKERELVAAIRRRGGSTYYADSVKGRFTISRDNEKNTVYLQMNSLKPEDTAVYYCNAFSITFYDFNSWGQGTQVTVSS | low polyreactivity |
| QVQLVESGGGLVQAGGSLRLSCAASGSTFYIYAMGWYRQAPGKEREFFAAITWSGGRTFYADSVKGRFTISRDNAKNTVYFQMNSLKPEDTAVYYCAARFWSDKTGSRYYYWGQGTQVTVSS | high polyreactivity |
| QVQLVESGGGLVQAGGSLRLSCAASGSTFYIYAMGWYRQAPGKERELVAAITWRGGGTYYADSVKGRFTISRDNAKNTVYLEMNSLKPEDTAVYYCNADYPRSRGVKYDYWGQGTQVTVSS | high polyreactivity |
| QVQLVESGGGLVQAGGSLRLSCAASGSTFYIYAMGWYRQAPGKERELVARISGSGGSTYYADSVKGRFTISRDNAKNTVELQMNSLKPEDTAVYYCAADDIYKYYQYYAFPYYRYDYWGQGTQVTVSS | low polyreactivity |
| QVQLVESGGGLVQAGGSLRLSCAASGSTFYIYAMGWYRQAPGKERELVARISGSGGSTYYADSVKGRFTISRDNAKNTVYLQMNSLKPEDTAVYYCAADYIYKYYQYYAFPYYRYDYWGQGTQVTVSS | low polyreactivity |
| QVQLVESGGGLVQAGGSLRLSCAASGSTFYIYAMGWYRQAPGKERELVARISGSTDYADSVKGRFTISRDNAKNTVYLQMNSLKPEDTAVYYCAARYVYPYWYGDYYWGQGTQVTVSS | low polyreactivity |
| QVQLVESGGGLVQAGGSLRLSCAASGSTFYKYAMGWYRPAPGKESELVAAISRGGSTYYADSVKGRFTISRDNAKNTFYLQMNSLKPEDTAVYYCAAETVSYYSKYDYWGQGTQVTVSS | low polyreactivity |
| QVQLVESGGGLVQAGGSLRLSCAASGSTFYKYAMGWYRQAPGKERELVAAITGSGGGTYYADSVKGRFTISRDNGKNTVYLQMNCLKPEDTAVYYCAARRVRSREAYDYWGQGTQVTVSS | high polyreactivity |

Source: the nanobody polyreactivity screen of Harvey et al. (2022)
